Experimental data: patent publication US20140341971A1 (LIPOTEK, published 2014)

Molecular target: T1, human DC-SIGN (DC-specific intercellular adhesion molecule 3-grabbing nonintegrin) (human, UniProt Q9NNX6 1-404)
T1 construct: whole, on cells; Target on THP-1 cells transfected with human DC-SIGN and on human moDCs; also called CD209; human DC marker DC-SIGN
T1 sequence (looked up): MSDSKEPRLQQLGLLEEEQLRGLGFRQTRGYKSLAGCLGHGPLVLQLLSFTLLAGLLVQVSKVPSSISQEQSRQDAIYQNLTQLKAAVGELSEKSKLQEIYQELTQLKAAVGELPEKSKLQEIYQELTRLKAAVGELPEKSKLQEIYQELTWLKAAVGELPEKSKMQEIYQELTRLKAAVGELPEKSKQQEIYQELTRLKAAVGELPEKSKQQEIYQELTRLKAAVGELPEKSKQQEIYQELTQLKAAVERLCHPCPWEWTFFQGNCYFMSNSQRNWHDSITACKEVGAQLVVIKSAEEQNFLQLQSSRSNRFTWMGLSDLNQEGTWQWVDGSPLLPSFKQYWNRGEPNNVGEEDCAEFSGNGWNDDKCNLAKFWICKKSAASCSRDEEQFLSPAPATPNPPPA
Assay: confocal microscopy, fluorescent vaccine on human monocyte-derived DCs
Procedure: FIG. 3: Z-sections through a human monocyte-derived dendritic cell (moDC) incubated with Lipovaxin-MM. […] Cells were placed on coverslips immediately prior to observation under the confocal microscope.

binding result: binds
B1: DMS5000 (other)
VH: STEVQLLESGGGLVQPGGSLRLSCAASGFTFDRRAMGWVRQAPGKGLEWVSSIESDGTRTYYADSVKGRFTISRDNSKNTLYLQMNSLRAEDTAVYYCAKHPGSSYVFDYWGQGTLVTVSS
notes: Human VH domain antibody (dAb), made as a secreted protein in E. coli; also called DC-SIGN specific domain antibody (dAb); dAb
